Assay [1] addresses T1, SARS-CoV-2 RBD (residues 331-550 of spike from BetaCoV/Wuhan-Hu-1/2019, accession number MN908947) (SARS-CoV-2 Wuhan-Hu-1, UniProt P0DTC2 331-550).
Assay [2] deals with T1, SARS-CoV-2 RBD (residues 331-550 of …). Nature of the assay: BLI.
For assay [3] the target is unchanged. Nature of the assay: ELISA.
Assay [4] has as its target SARS-CoV-2 mutant RBD N439K (SARS-CoV-2, UniProt P0DTC2 328-531). Description: ELISA.
In assay [5] the target is T1, SARS-CoV-2 RBD (residues 331-550 of …). Nature of the assay: BLI. This is another data set of the same source.
Assay [6] has as its target T2, SARS-CoV-2 Spike protein (SARS-CoV-2 Wuhan-Hu-1, UniProt P0DTC2 14-1273). Nature of the assay: cell-based or functional assay.
The target in assay [7] is T2, SARS-CoV-2 Spike protein. Nature of the assay: cell-based or functional assay. The source holds these as a separate data set.

Changes are numbered by the printed parent chain. “And” between values parts separate entries of the source, which are not always exact repeats. Identical values can stand only once. Like-named read-outs stand apart in the source and are kept apart here.

B1: 407_10_1_v2 (antibody, V domains shown)
VH: QVQLVQSGAEVKKPGSSVKVSCKASGGIFNTYTISWVRQAPGQGLEWMGRIILMSGMANYAQKIQGRVTITADKSTSTAYMELTSLRSDDTAVYYCARGFNGNYYGWGDDDAFDIWGQGTLVTVYS
VL: QTVLTQPPSVSGAPGQRVTISCTGSNSNIGAGYDVHWYQQLPGTAPKLLICGNSNRPSGVPDRFSGSKSGTSASLAITGLQAEDEADYYCQSYDSSLSGPNWVFGGGTKLTVL
For B1, the half-maximal effective concentration (EC50 (read off the curve)) in assay [1] is around 5 µg/mL.

B2: S2X259 variant antibody, VH SEQ ID NO 460 / VL SEQ ID NO 445 (antibody, V domains shown)
VH: B1 VH with M54I, M57I, Y125S
VL: B1 VL with C51V
With B2, in assay [2], binding was put at a Kd of 0.298 nM, the koff was 0.000177 s⁻¹ and the kon worked out at 595000 M⁻¹ s⁻¹. Further, in assay [3], the IC50 is ≥ 0.05 µg/mL and ≤ 0.1 µg/mL.

B3: S2X259 variant antibody, VH SEQ ID NO 459 / VL SEQ ID NO 445 (antibody, V domains shown)
VH: B1 VH with M57K, Y125S
VL: B1 VL with C51V
In the case of B3, in assay [2], the Kd stood at 0.108 nM, the koff is 6.46e-05 s⁻¹ and the association rate constant (kon) turned out to be 601000 M⁻¹ s⁻¹. Also, the IC50 in assay [3] was ≥ 0.05 µg/mL and ≤ 0.1 µg/mL. For the same molecule, the half-maximal inhibitory concentration (IC50) in assay [4] is ≥ 0.05 µg/mL and ≤ 0.1 µg/mL.

B4: S2X259 variant antibody, VH SEQ ID NO 408 / VL SEQ ID NO 442 (antibody, V domains shown)
VH: B1 VH with W116S
VL: B1 VL with C51S
B4 had a dissociation constant (Kd) in assay [5] of 0.0605 nM. Further, the “neutralization IC50” value with SARS-CoV-2 Spike protein [6] amounted to 0.19 µg/mL.

B5: S2X259 variant antibody, VH SEQ ID NO 408 / VL SEQ ID NO 444 (antibody, V domains shown)
VH: B1 VH with W116S
VL: B1 VL with C51Y
For the molecule B5, the Kd in assay [5] is 0.0642 nM. Moreover, the “neutralization IC50” value in the assay with SARS-CoV-2 Spike protein [6] amounted to 0.167 µg/mL.

B6: S2X259 variant antibody, VH SEQ ID NO 408 / VL SEQ ID NO 443 (antibody, V domains shown)
VH: B1 VH with W116S
VL: B1 VL with C51A
B6 returned a Kd in assay [5] of 0.0828 nM. Also, the “neutralization IC50” value with SARS-CoV-2 Spike protein [7] was below 0.1 µg/mL; with SARS-CoV-2 Spike protein [6], 0.0975 µg/mL.

B7: S2X259 variant antibody, VH SEQ ID NO 446 / VL SEQ ID NO 412 (antibody, V domains shown)
VH: B1 VH with M54I, M57I, W116S
VL: B1 VL
In assay [5], B7 had an equilibrium dissociation constant (Kd) of 0.572 nM. Further, in the assay with SARS-CoV-2 Spike protein [6], the “neutralization IC50” value was 0.321 µg/mL.

B8: S2X259 variant antibody, VH SEQ ID NO 458 / VL SEQ ID NO 445 (antibody, V domains shown)
VH: B1 VH with Y125S
VL: B1 VL with C51V
In assay [2], B8 yielded a dissociation constant (Kd) of 0.0836 nM, an off-rate constant (koff) of 5.03e-05 s⁻¹ and a kon of 601000 M⁻¹ s⁻¹. Further, the half-inhibitory concentration (IC50) in assay [3] is ≥ 0.05 µg/mL and ≤ 0.1 µg/mL. For the same molecule, in assay [4], the half-maximal inhibitory concentration (IC50) was ≥ 0.05 µg/mL and ≤ 0.1 µg/mL.

B9: S2X259 variant antibody, VH SEQ ID NO 408 / VL SEQ ID NO 445 (antibody, V domains shown)
VH: B1 VH with W116S
VL: B1 VL with C51V
The molecule B9 had a Kd in assay [5] of 0.0764 nM. Moreover, in assay [2], the dissociation constant Kd stood at 0.0314 nM, the off-rate (koff) was found to be 2.08e-05 s⁻¹ and the on-rate (kon) is 661000 M⁻¹ s⁻¹. In addition, the “neutralization IC50” value with SARS-CoV-2 Spike protein [7] was below 0.1 µg/mL. Also, the “neutralization IC50” value with SARS-CoV-2 Spike protein [6] stood at 0.19 µg/mL.

B10: S2X259 variant antibody, VH SEQ ID NO 448 / VL SEQ ID NO 412 (antibody, V domains shown)
VH: B1 VH with N30S, W116S
VL: B1 VL
Molecule B10 yielded an equilibrium dissociation constant (Kd) in assay [5] of 0.584 nM. Further, the “neutralization IC50” value in the assay with SARS-CoV-2 Spike protein [6] was determined as 0.0134 µg/mL.

The values above are taken from patent US20240059757A1 (VIR BIOTECHNOLOGY, published 2024).
